Data on four molecules can be found in patent US20140220040A1 (ARCA BIOPHARMA, published 2014).

Assay [1] addresses T1, Human LRP6-Fc (R&D Systems), recombinant human LRP6 containing the complete extracellular domain (human, UniProt O75581 20-1370).
T1 construct: Bought protein; also called hLRP6; Fc-antigen; not shown: Fc part of the bought fusion protein
T1 sequence: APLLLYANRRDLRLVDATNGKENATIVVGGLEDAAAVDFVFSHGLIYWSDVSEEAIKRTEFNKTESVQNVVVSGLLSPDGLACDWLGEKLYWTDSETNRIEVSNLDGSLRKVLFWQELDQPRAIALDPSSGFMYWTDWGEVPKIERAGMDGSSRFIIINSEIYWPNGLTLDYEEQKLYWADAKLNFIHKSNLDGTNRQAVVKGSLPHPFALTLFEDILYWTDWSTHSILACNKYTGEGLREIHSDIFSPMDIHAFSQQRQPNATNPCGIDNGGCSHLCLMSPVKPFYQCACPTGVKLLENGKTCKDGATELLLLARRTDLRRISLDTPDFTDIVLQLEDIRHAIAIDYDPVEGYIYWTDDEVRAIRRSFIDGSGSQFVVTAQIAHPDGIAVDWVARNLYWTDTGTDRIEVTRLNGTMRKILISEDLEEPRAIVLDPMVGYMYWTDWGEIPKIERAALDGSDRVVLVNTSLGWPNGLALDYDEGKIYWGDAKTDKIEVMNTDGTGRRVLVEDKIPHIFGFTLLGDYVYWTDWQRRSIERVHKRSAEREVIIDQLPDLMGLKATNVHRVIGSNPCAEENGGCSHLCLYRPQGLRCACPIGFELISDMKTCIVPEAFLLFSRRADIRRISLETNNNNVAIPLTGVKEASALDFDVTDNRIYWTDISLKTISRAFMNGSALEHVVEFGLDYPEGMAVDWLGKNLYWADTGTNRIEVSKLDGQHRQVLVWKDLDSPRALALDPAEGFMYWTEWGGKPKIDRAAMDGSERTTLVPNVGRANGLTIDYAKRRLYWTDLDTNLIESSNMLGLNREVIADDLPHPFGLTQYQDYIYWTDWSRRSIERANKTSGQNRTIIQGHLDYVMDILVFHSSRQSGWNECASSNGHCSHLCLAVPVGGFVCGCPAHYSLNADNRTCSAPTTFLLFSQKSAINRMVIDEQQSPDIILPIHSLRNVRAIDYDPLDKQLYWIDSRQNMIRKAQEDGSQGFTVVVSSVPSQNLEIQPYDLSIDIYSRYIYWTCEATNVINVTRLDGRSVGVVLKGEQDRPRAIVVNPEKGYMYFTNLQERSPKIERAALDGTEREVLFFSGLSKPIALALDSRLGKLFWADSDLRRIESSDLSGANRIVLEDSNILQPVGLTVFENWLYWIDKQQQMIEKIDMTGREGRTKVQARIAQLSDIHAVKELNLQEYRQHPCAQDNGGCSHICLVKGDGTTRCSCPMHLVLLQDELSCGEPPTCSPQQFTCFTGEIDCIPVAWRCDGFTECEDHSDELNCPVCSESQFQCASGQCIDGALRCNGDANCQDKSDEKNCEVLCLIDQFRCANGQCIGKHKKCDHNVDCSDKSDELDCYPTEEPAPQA
The assay is described as follows: SPR (BIAcore), mAb captured on anti-mouse chip, Fc-antigen injected, 1:1 model. Here is the method: (§1) Kinetic rate constants (kₐ and kd) were determined using surface plasmon resonance, and affinities (KD) were then calculated from the rate constants (kd/kₐ). Surface plasmon resonance was carried out on a BIAcore system (Biacore International AB, Uppsala, Sweden). Each murine anti-LRP6 mAb sample was diluted 100 fold and captured onto an anti-mouse sensor chip surface. The running buffer contained 10 mM HEPES, 150 mM NaCl, 0.005% Tween-20 and 0.1 mg/ml BSA. Following the capturing step, the Fc-antigen was injected at 45 nM as the highest concentration in a 3-fold dilution series. The association and dissociation phases were monitored for 8 and 60 minutes, respectively. The antigen response data were fit into a 1:1 interaction model.
Background: In SPR one partner is held on a chip, and binding of the other changes the refractive index at the surface.

Assay [2] addresses T1, Human LRP6-Fc (R&D Systems), …. The assay is described as follows: SPR (BIAcore): mAb captured on an anti-mouse chip, Fc-antigen injected from 45 nM in 3-fold dilutions, 1:1 fit [cont., panel R]. The procedure: as §1
For assay [3] the target is unchanged. The assay is described as follows: SPR (BIAcore): mAb captured on an anti-mouse chip, Fc-antigen injected from 45 nM in 3-fold dilutions, 1:1 fit. The sheet prints no unit for ka; the unit is from the head of Table 4. [cont., panel R]. Here is the method:
as §1

Assay [4] shares this target. The assay is described as follows: SPR (BIAcore): mAb captured on an anti-mouse chip, Fc-antigen injected from 45 nM in 3-fold dilutions, 1:1 fit. The sheet prints no unit for kd; the unit is from the head of Table 4. [cont., panel R]. Here is the method:
as §1

The target of assay [5] is T2, LRP6Δ1-2 propeller domain deletion construct (human, UniProt O75581 629-1613).
T2 construct: Deletion construct of human LRP6 expressed in 293 cells
T2 sequence: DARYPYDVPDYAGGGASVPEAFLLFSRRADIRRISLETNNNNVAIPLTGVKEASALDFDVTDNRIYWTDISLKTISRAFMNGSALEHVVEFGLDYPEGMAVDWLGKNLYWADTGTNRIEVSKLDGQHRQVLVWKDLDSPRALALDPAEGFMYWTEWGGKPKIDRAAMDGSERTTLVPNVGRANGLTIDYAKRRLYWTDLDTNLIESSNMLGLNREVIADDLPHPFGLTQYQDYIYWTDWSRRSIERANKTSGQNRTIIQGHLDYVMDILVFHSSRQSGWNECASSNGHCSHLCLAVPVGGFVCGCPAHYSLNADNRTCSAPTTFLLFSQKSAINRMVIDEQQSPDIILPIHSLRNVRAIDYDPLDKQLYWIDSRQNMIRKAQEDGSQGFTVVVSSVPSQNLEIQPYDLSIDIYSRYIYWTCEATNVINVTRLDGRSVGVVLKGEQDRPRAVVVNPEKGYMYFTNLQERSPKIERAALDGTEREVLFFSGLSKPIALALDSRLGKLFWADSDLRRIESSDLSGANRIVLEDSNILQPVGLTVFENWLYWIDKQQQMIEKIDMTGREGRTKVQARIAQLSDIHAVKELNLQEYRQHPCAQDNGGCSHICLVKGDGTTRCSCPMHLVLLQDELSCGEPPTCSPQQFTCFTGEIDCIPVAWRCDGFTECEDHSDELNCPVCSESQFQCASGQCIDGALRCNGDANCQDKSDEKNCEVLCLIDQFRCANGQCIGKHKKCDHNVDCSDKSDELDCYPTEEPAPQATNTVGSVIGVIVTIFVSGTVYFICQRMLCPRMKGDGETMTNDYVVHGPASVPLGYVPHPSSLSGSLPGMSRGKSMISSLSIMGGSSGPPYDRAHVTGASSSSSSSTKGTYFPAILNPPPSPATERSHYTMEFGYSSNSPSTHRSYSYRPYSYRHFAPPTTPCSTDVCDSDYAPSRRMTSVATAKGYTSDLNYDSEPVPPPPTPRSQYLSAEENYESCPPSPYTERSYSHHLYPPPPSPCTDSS
The assay is described as follows: flow cytometry on 293 cells expressing the deletion construct. Here is the method: (§2) To identify the region of LRP6 that is recognized by LRP6 mAbs, a series of LRP6 propeller domain deletion constructs were made (SEQ ID NO: 6-15) and expressed in 293 cells. Binding of anti-LRP6 mAbs was determined by flow cytometry. […] Amino acid sequence alignments of the heavy and light chain variable domains of the anti-LRP6 mAbs disclosed herein are shown in FIGS. 4 and 5, respectively.
On the technique in general: Flow cytometry measures light scatter and fluorescence of single cells or particles in a stream.

Another assay deals with T3, LRP6Δ1/4.
T3 construct: also called LRP6Del1-4
T3 chain: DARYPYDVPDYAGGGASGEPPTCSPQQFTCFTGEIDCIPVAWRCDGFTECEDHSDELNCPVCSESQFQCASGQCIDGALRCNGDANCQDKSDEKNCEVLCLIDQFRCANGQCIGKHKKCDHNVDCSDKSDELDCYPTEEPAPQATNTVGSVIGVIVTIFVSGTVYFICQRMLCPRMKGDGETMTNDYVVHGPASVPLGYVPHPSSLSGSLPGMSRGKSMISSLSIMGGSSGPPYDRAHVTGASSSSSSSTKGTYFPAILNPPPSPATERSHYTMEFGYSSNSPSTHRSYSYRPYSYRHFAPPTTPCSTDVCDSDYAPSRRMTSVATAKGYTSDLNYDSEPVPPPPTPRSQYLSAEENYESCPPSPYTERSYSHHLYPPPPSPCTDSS
The assay is described as follows: FACS on 293 cells transfected with LRP6Δ1/4 [cont.]. Here is the method: as §2

B1: anti-LRP6 monoclonal antibody 1433.8 (antibody, V domains shown)
VH: QVQLQQSGAELAKPGASVKMSCKASGYTFTSYWMHWVKQRPGQGLEWIGYINPSTGYTEYNQKFRDKATLTADKSSSTANMQLSSLTSEDSAVYYCTRTAQYYGSPRGYYAMDSWGQGTSVTVSS
VL: MTQAAFSNPVTLGTSASISCRSSKSLLHSNGITYLCWFLQKPGQSPQLLIYLMSNLASGVPDRFSSSGSGTDFTLRISRVEAEDVGVYFCAQNLDLPWTFGGGTKLEI
notes: Murine hybridoma mAb, protein G purified; also called VH21/VL21
As a reminder, the Kd is the constant that tells how readily two partners part at equilibrium. As usually defined, the koff is a measure of how fast the partners let go of each other. As usually defined, the kon is the rate constant with which the complex forms. For the molecule B1, in assay [1], the Kd amounted to 1.68 nM, the koff came out at 7.7e-05 s⁻¹ and the kon came to 45600 M⁻¹ s⁻¹.

B2: anti-LRP6 monoclonal antibody 1470.2 (antibody, V domains shown)
VH: DVNLVESGGGLVKLGGSLKLSCAASGFTFSSFYMSWVRQTPEKRLDLVAAINTNGGSTYYSDTVKGRFTISRDNAKNTLYLQMSSLKSEDTALFYCARQPYYGGPMDFWGQGTSVTVSS
VL: DIVLTQSPATLSVTPGDSVSLSCRASQSINNNLHWYQQKSHESPRLLIKYASQSISGIPSRFSGSGSGTDFTLSINSVETEDFGMYFCQQSNNWPLTFGAGTKLEL
notes: Murine hybridoma mAb, protein G purified; also called VH22/VL22
For the molecule B2, the Kd in assay [2] amounted to 3.51 nM. Also, the kon in assay [3] turned out to be 20800 M⁻¹ s⁻¹. Besides, the koff in assay [4] amounted to 7.3e-05 s⁻¹.

B3: anti-LRP6 monoclonal antibody 1903.1 (antibody, V domains shown)
VH: DVNLVESGGGLVKLGGSLKLSCAASGFTFSRFYMSWVRQTPEKRLDLVAAINTNGGSTYYSDTVKGRFTISRDNAKNTLYLQMSSLKSEDTALFYCARQPYYGGPMEFWGQGTSVTVSS
VL: DIVMTQSQKFMSTSVGDRVSVTCKASQNVGTNVAWYQQKPGQSPKALIYSASYRYSGVPDRFTGSGSGSDFTLTISNVQSEDLAEYFCQQYNSYPLTFGAGTKLEL
notes: Murine hybridoma mAb, protein G purified; also called VH23/VL23
On to B3, for which, in assay [1], the dissociation constant Kd was determined as 2.79 nM, the koff was determined as 9.4e-05 s⁻¹ and the association rate constant (kon) is 33700 M⁻¹ s⁻¹.

B4: anti-LRP6 monoclonal antibody 135.16 (antibody, V domains shown)
VH: QVQLQQSGAELVKPGASVKMSCKAFGYTFTSYPIEWMKQNHGKSLEWIGNFHPYNDNTKYNEKFKGKAKLTVEKSSSTVYLELSRSTSDDSAVYYCARGYSGNYFSAMDYWGQGTSVTVSS
VL: DIVMTQSQKFMSTSVGDRVSITCKASQNVRNDVAWYQQKPGQSPKSLIYLASNRHTGVPDRFTGSGSGTDFTLTISNVQSEDLADYFCLQHWNYPYTFGGGTKLEIKR
notes: Murine hybridoma mAb, protein G purified; also called mAb135.16
Regarding B4, the binding result in assay [5] is on record as “no binding”. Besides, in the assay with LRP6Δ1/4, the binding result is reported as “no binding (tested: not stated)”. For the same molecule, in assay [1], the Kd stood at 0.73 nM, the koff amounted to 1.9e-05 s⁻¹ and the kon was 26300 M⁻¹ s⁻¹.
